B1: Hairpin Ribozyme (parent)
chain: GUCCUCUUUCACGUGCGCGUGAAAGAGAGAAGUGAACCAGAGAAACACACGUUGUGGUAUAUUACCUGGUA

Drawing on the RNAGym collection of RNA variant scans (doi:10.7554/elife.80360), this text covers self-cleavage for 38 variants.

In the data set the parent is B1. As to the kind of experiment: self-cleavage, relative activity (ratio to wild type); higher = more cleavage; co-transcriptional.
Consider GUCCUAUUUCACGUGCGCGUGAAAGAGAGAAGUGAACCAGAGAAACACAAGUUGUGGUAUAUUACCUGGUA [C6A C50A], for which the self-cleavage came out at 0.223.

With GUCCUAUUUCACGUGCGCGUGAAAGAGAGAAGUGAACCAGAGAAACACAGGUUGUGGUAUAUUACCUGGUA [C6A C50G], the self-cleavage was found to be 0.175.

With GUCCUAUUUCACGUGCGCGUGAAGGAGAGAAGUGAACCAGAGAAACACACGUUGUGGUAUAUUACCUGGUA [C6A A24G], the self-cleavage is 0.45.

As for GUCCGCUUUCACGUGCGCGUGAAAGAGAGAAGUGAACCAGAGAAACACACGUUGUGAUAUAUUACCUGGUA [U5G G57A], the self-cleavage was found to be 0.127.

Regarding GUCCGCUUUCACGUGCGCGUGAAAGAGAGAAGUGAACCAGAGAAACACACGUUGUGUUAUAUUACCUGGUA [U5G G57U], the self-cleavage worked out at 0.163.

GUCCGCUUUCACGUGCGCGUGAAAGAGAAAAGUGAACCAGAGAAACACACGUUGUGGUAUAUUACCUGGUA [U5G G29A]: the self-cleavage came to 0.139.

Turning to GUCCGCUUUCACGUGCGCGUGAAAGAGAGAAGUGAACCAGAGAAACACACGUUGUGGGAUAUUACCUGGUA [U5G U58G], the self-cleavage is 0.0427.

GUCCUAUUUCCCGUGCGCGUGAAAGAGAGAAGUGAACCAGAGAAACACACGUUGUGGUAUAUUACCUGGUA [C6A A11C]: the self-cleavage amounted to 0.415.

Turning to GUCCUAUUUCUCGUGCGCGUGAAAGAGAGAAGUGAACCAGAGAAACACACGUUGUGGUAUAUUACCUGGUA [C6A A11U], the self-cleavage was 0.399.

With GUCCGCUUUCACGUGCGCGUGAAAGAGAGAAGUGAACCAGAGAAACACACGUUGUGGUAUAUUACAUGGUA [U5G C66A], the self-cleavage was found to be 0.0473.

On to GUCCUAUUUCACGUGCGCGUGAAAGAGAGAAGUGAACCAGAGAAACACACGUUCUGGUAUAUUACCUGGUA [C6A G54C], for which the self-cleavage worked out at 0.209.

As to GUCCGCUUUCACGUACGCGUGAAAGAGAGAAGUGAACCAGAGAAACACACGUUGUGGUAUAUUACCUGGUA [U5G G15A], the self-cleavage was 0.407.

Take GUCCGCUUUCACGUGCGCGUAAAAGAGAGAAGUGAACCAGAGAAACACACGUUGUGGUAUAUUACCUGGUA [U5G G21A]: the self-cleavage was determined as 0.17.

Consider GUCCGCUUUCACGUGCGCGUGAAAGAGAGAAGUGAACCAGACAAACACACGUUGUGGUAUAUUACCUGGUA [U5G G42C], for which the self-cleavage was determined as 0.0932.

On to GUCCGCUUUCACGUGCGCGUGAAAGAGAGAAGUGAACCAGAUAAACACACGUUGUGGUAUAUUACCUGGUA [U5G G42U], for which the self-cleavage amounted to 0.198.

Turning to GUCCUAUUUCACGUGCGCGUGAAAGCGAGAAGUGAACCAGAGAAACACACGUUGUGGUAUAUUACCUGGUA [C6A A26C], the self-cleavage was determined as 0.418.

For the variant GUCCGCUUUCACGUGCGCGUGAAAGAGAGAAGUGAACCAGAGAAACACACGUUGUGGUAUAUUACCUAGUA [U5G G68A], the self-cleavage came to 0.201.

As for GUCCGCUUUCACGUGCGCGUGAAAGAGAGAAGUGAACCAGAGAAACACACUUUGUGGUAUAUUACCUGGUA [U5G G51U], the self-cleavage amounted to 0.534.

As for GUCCUAUUUCACGUGCGCGUGAAAGACAGAAGUGAACCAGAGAAACACACGUUGUGGUAUAUUACCUGGUA [C6A G27C], the self-cleavage came out at 0.118.

As for GUCCUAUUUCACGUGCGCGUCAAAGAGAGAAGUGAACCAGAGAAACACACGUUGUGGUAUAUUACCUGGUA [C6A G21C], the self-cleavage turned out to be 0.364.

GUCCUAUUUCACGUGCGCGUGAAAGAGAGAAGUGAACCAGAGAAACACACUUUGUGGUAUAUUACCUGGUA [C6A G51U]: the self-cleavage is 0.58.

As to GUCCUAUUUCACGUGCGCUUGAAAGAGAGAAGUGAACCAGAGAAACACACGUUGUGGUAUAUUACCUGGUA [C6A G19U], the self-cleavage came out at 0.505.

Regarding GUCCGCUUUCACGUGCGCGUGAAAGAGAGAAGUGAACCAUAGAAACACACGUUGUGGUAUAUUACCUGGUA [U5G G40U], the self-cleavage amounted to 0.13.

On to GUCCGCUUUCACGUGCGCGUGAAAGAGAGAAGUGAACCACAGAAACACACGUUGUGGUAUAUUACCUGGUA [U5G G40C], for which the self-cleavage came to 0.14.

Regarding GUCCGCUUUCACGUGCGCGUGAAAAAGAGAAGUGAACCAGAGAAACACACGUUGUGGUAUAUUACCUGGUA [U5G G25A], the self-cleavage amounted to 0.225.

GUCCGCUCUCACGUGCGCGUGAAAGAGAGAAGUGAACCAGAGAAACACACGUUGUGGUAUAUUACCUGGUA [U5G U8C]: the self-cleavage stood at 0.099.

On to GUCCGCUGUCACGUGCGCGUGAAAGAGAGAAGUGAACCAGAGAAACACACGUUGUGGUAUAUUACCUGGUA [U5G U8G], for which the self-cleavage turned out to be 0.262.

GUCCUAUUUCACGUGCGCGUGAAAGAGAGCAGUGAACCAGAGAAACACACGUUGUGGUAUAUUACCUGGUA [C6A A30C]: the self-cleavage came to 0.221.

For GUCCGCUUUCACGUGCCCGUGAAAGAGAGAAGUGAACCAGAGAAACACACGUUGUGGUAUAUUACCUGGUA [U5G G17C], the self-cleavage amounted to 0.35.

As for GUCCUAUUUCACGUGCGCGUGAAAGAGAGAAGUGAACCAGAGAAACACACGUUGUGGUAUAUUACCUGGUC [C6A A71C], the self-cleavage was found to be 1.14.

On to GUCCGCUUUCACGUGCGCGUGAAAGAGAGAAGUGAAGCAGAGAAACACACGUUGUGGUAUAUUACCUGGUA [U5G C37G], for which the self-cleavage was 0.125.

With GUCCGCUUUCACGUGCGCGUGAAAGAGAGAAGUGAACAAGAGAAACACACGUUGUGGUAUAUUACCUGGUA [U5G C38A], the self-cleavage came to 0.12.

GUCCUAUUUCAUGUGCGCGUGAAAGAGAGAAGUGAACCAGAGAAACACACGUUGUGGUAUAUUACCUGGUA [C6A C12U]: the self-cleavage stood at 0.512.

As for GUCCGCUUUCACGUGCGCGUGAAAGAGAGAAGUGAACCAGAGAAACACACGGUGUGGUAUAUUACCUGGUA [U5G U52G], the self-cleavage came out at 0.255.

Regarding GUCCUAUUUCACGUGAGCGUGAAAGAGAGAAGUGAACCAGAGAAACACACGUUGUGGUAUAUUACCUGGUA [C6A C16A], the self-cleavage stood at 0.561.

On to GUCCGCUUUCACGUGCGCGUGAAAGAGAGAAGUGAACCAGAGAAACACACGUUGUGGUACAUUACCUGGUA [U5G U60C], for which the self-cleavage was 0.593.

For the variant GUCCGCUUUCACGUGCGCGUGAAAGAGAGAAGUGAACCAGAGAAACACACGUUGUGGUAAAUUACCUGGUA [U5G U60A], the self-cleavage is 0.161.

As for GUCCUAUUUCACGUGCGCGUGAAAGAGAGAAGUGGACCAGAGAAACACACGUUGUGGUAUAUUACCUGGUA [C6A A35G], the self-cleavage was found to be 0.619.
